Measured values as given in PMC5639704.

Biological target: Human TRF2^TRFH (residues 42-245) (human)
Experiment: ITC

Q: Which Kd does the source give for “WT hNBS1 peptide (423–438) (from UniProt O60934 423-438)” here?
A: Its Kd is 17 µM.

Q: Which Kd does the source give for WT mNBS1 peptide here?
A: The Kd was 19.8 µM.

Q: With “hNBS1^S432A peptide (423–438) (from UniProt O60934 423-438)” as the substance, how does the Kd read?
A: Its Kd is 16 µM.

Q: With mNBS1^S433A peptide as the substance, how does the Kd read?
A: The Kd was 21.7 µM.
